{"source": "patent US12472269B2", "about": "“Liver-specific inducible promoters and methods of use thereof” (ASKBIO INC., priority 2019, dated 2025)", "molecules": {"B1": {"name": "PB1-MinTK: promoter: single mouse PBREM element and MinTK minimal promoter, SEQ ID NO: 7 (nucleic acid)", "DNA": "TCTGTACTTTCCTGACCTTGGCACAGTGCCACCATCAACTTGCCTGACACCGATCCGGCCCCGCCCAGCGTCTTGTCATTGGCGAATTCGAACACGCAGATGCAGTCGGGGCGGCGCGGTCCGAGGTCCACTTCGCATATTAAGGTGACGCGTGTGGCCTCGAACACCGAGCGACCCTGCAGCGACCCGCTTAACAGCGTCAACAGCGTGCCGCAGATCTCGAGGAGCTTGGCGAGATTTTCAGGAGCTAAGGAAGCTAAAC", "modifications": "PB1-MinTK"}}, "key": {"[1]": {"tested_on": "CD1 male mice", "assay": "In vivo bioluminescence imaging of mice injected with AAV9 constructs, induction by phenobarbital", "description": "• Seed HEK 293-AAV cells in 15 cm plates. To be 70-80% confluent on the day of transfection • Final volume on each plate: 15 ml Day 2: Prepare Transfection Mix: • DNA mix/plate: pDG9 (Packaging plasmid for AAV9): 10.5 μg/pHGTI (Ad. Helper plasmid): 31.5 μg/Vector plasmid: 10.5 μg/Prepare in serum free DMEM/Optimem • Transfer mix/plate: PEI: 125 μl/Prepare in serum free DMEM/Optimem • Add DNA mix into transfection mix. Mix and leave at room temperature for 15-20 mins. • Add 3 ml of transfection mix to each plate drop-wise and gently distribute. Incubate for 24 h. Day 3: • Replace media with 15 ml DMEM supplemented with P/S and 2% FCS. Leave for 48 h. Day 5: • Collect supernatant and pool in 50 ml tubes, 25 ml each tube. Store at −20° C. • Collect cells: Add 5 ml of PBS to each plate→scrape and collect in 50 ml tubes. • To wash plates, add another 1 ml of PBS and collect. • Spin at 1500 rpm for 5 mins. • Remove supernatant and resuspend pelleted cells in 1 ml/plate TD lysis buffer→pool • Store at −80′C. Endonuclease Treatment Cells: • Freeze and thaw pellets 5 times→˜20 mins at 37° C. then ˜20 mins in dry ice (or −80° C.). • Add 25 μl/ml cells of 20% Deoxycholate (or 50 μl/ml of 10% Deoxycholate). • Add 8 μl/ml cells of benzonase. • Incubate at 37° C. for 30 mins. • Spin at 4 Krpm for 30 mins. • Filter supernatant using […] filters. • Store at 4° C. for up to 24 h. Supernatant: • Add 2.5 μl/25 ml supernatant of benzonase. • Add 50 μl/25 ml supernatant of MgSO4. • Incubate at 37° C. for 30 mins. • Spin at 4 Krpm for 30 mins. • Filter supernatant using […] filters. • Store at 4′C for up to 24 h. Hplc Purification • Place both lines in 20% ETOH→template→system wash • Put line A in PBS and line B in Glycine→template→system wash • Place the column in the machine→manual run→flowrate: 5 ml/min→Run for 25 ml or until the UV line is flat. • Prepare FACS tubes (10 for cells and more for supernatant): add 30 μl/tube Tris→put in the machine to collect vectors. • Place the waste lines in a separate tube to be able to run them again through the column. • Run samples (flowrate low, depending on how fast the system and how concentrated the sample is; for cells it is slower, for supernatant it is higher). • After running the waste through the column, wash with PBS→flowrate: 5 ml/min until the UV line is flat. • Set→fraction size: 1 ml; Flowrate: 1 ml/min; concentration % B: 100%→run. • Start collecting: Look for the peak. The peak indicates vector purification. Mark the tubes containing these vectors. • Save programme before exiting. • Wash with PBS→75 ml, 5 ml/min • Wash with Na3PO4 (to store the column in)→75 ml, 5 ml/min • Remove column and store at 4° C. • Wash the machine with PBS→template→system wash • Wash the machine with 20% ETOH→template→system wash • Put both lines in 20% ETOH and shut down • Add 2 L of PBS into a big bucket and put the Dialysis cassette (Side-A-Lyzer; Thermo scientific) to prime. • Collect the vectors from the marked FACS tubes using a syringe and needle and add into the dialysis cassette→remove excess air from the membrane, carefully place the rubber on top of the cassette and let it float in the PBS-containing bucket→leave over night at room temperature on a slow rotating rotor. Next Day: • Prime membrane by adding 5 ml PBS onto a centrifugal filter (Amico Ultra 15; MERCK)→spin for 5 mins at 4 Krpm • Remove excess PBS from inside the membrane. • Take vectors out from the cassette and load onto the membrane→spin for 5 mins at 4 Krpm • Wash the membrane with the vectors inside few times, then collect into 2 ml centrifuge tube filter 0.22 μM (Spin-X; COSTAR) • Spin for 3 mins at 13 Krpm. • Remove filter and aliquot: 1×100 μl (for injection), the rest in 10-2 μl aliquots. • Store in −80° C. • Virus quantification was performed using qRT-PCR with primers and probes for the luciferase gene. Mice Experiment […]"}, "[2]": {"tested_on": "AXOL ARE-hepatocytes", "assay": "Luciferase expression from PBREM promoters in AXOL ARE-hepatocytes, induction by CITCO", "type": "cell-based, human", "details": "1 μM CITCO"}, "[3]": {"details": "AAV9, phenobarbital intraperitoneally"}}}
{"molecule": "B1", "values": [{"measurement": "luciferase expression before induction", "setting": "[1]; 0 hrs", "value": "no expression of the luciferase gene"}, {"measurement": "time at which induction is complete", "setting": "[1]; [3]", "value": 24, "unit": "h"}, {"measurement": "time of maximal activity after induction", "setting": "[1]; [3]", "value": 9, "unit": "h"}, {"measurement": "tissue distribution of luciferase expression", "setting": "[1]; AAV9 via tail vein", "value": "confined to the liver"}, {"measurement": "expression level compared to CMV-IE", "setting": "[2]", "value": 20, "unit": "%"}, {"measurement": "induction of luciferase expression", "setting": "[2]; readout 24 hrs after induction", "value": "around 7 fold"}]}
